Drawing on PMC11286949, this text covers stoichiometry N and Kd for three substances.

In series [1] the target is Aquifex aeolicus Trbp111 (tRNA-binding protein, 111 amino acids) (Aquifex aeolicus). The experiment in a line: crystal structure; unbound (apo) Trbp111, 2.3 Å, space group C222_(1); crystals grew from a mixture with tRNA^Ile, 0.2 M lithium sulfate, 0.1 M Tris-HCl pH 8.5, 25% PEG 3350.
Series [2] has as its target T1, Arc1p dN del1-131 (Saccharomyces cerevisiae) (UniProt P46672).
T1 sequence: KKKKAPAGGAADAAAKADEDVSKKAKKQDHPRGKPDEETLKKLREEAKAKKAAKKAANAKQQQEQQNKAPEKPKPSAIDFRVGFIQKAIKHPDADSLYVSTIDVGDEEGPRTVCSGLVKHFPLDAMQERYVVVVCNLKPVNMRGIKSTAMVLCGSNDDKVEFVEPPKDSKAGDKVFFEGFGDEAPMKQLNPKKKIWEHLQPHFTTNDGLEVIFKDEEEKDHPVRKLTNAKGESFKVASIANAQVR
The experiment in a line: ITC. Particulars: FP: 25 mM Tris-HCl pH 7.5, 2 mM MgCl2, 50 mM NaCl (Trbp111) or 150 mM NaCl (Arc1p), room temperature, ITC: 25 mM Tris-HCl pH 7.4, 150 mM NaCl.

The target of series [3] is T2, Arc1p dNdM1 (Saccharomyces cerevisiae) (UniProt P46672).
T2 sequence (P46672 whole entry, looked up): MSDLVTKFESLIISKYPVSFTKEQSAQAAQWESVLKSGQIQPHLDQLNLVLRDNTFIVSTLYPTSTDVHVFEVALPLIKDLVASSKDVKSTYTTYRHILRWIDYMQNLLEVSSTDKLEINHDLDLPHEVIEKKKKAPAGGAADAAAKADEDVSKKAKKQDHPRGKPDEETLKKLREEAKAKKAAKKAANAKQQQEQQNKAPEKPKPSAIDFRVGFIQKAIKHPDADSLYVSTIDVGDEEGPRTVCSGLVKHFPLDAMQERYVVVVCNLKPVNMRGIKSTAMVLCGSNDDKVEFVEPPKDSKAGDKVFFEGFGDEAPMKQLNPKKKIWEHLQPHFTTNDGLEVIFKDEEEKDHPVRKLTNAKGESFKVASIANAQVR
The experiment in a line: ITC. Particulars: FP: 25 mM Tris-HCl pH 7.5, 2 mM MgCl2, 50 mM NaCl (Trbp111) or 150 mM NaCl (Arc1p), room temperature, ITC: 25 mM Tris-HCl pH 7.4, 150 mM NaCl.

Broadly, the stoichiometry N is a count of units in the complex or per binding partner. Turning to “Aquifex aeolicus Trbp111 (tRNA-binding protein, 111 amino acids) (natural protein)”, the stoichiometry N in series [1] worked out at 2.
As a reminder, the Kd is the equilibrium constant for the complex coming apart. Lower therefore signals a tighter complex. In series [2], tRNAIle G18C/G19C registered a Kd of 3320 nM.
In the case of “AGGCUUGUAGCUCAGGUGGUUAGAGCGCACCCCUGAUAAGGGUGAGGGCGGUGGUUCAAGUCCACUCAGGCCUACCA [tRNAIle WT]”, in series [3], the Kd was 2550 nM.
